Experimental data as given in the RNAGym collection of RNA variant scans (doi:10.1073/pnas.2313332121).
Fewer inactive variants are shown than the library holds.

B1: TPR 5TU (parent)
chain: GGAUCUUCUCGAUCUAACAAAAAAGACAAAUCUGCCACAAAGCUUGAGAGCAUCUUCGGAUGCAGAGGCGGCAGCCUUCGGUGGCGCGAUAGCGCCAACGUUCUCAACUAUGACACGCAAAACGCGUGCUCCGUUGAAUGGAGUUUAUCAUG

Variants of: B1
Test: polymerase ribozyme fitness, log enrichment relative to wild type (log ratio); higher = more active; in vitro selection for triplet polymerase activity
Procedure, shortened: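 After PCR construction and transcription, each subunit's mutant library from a heterodimeric triplet polymerase ribozyme was annealed with a biotinylated primer, the partner subunit and triplets. Incubation was frozen, at −7 °C, and extended constructs were gel-excised, bound to streptavidin beads and amplified by RT-PCR, in one selection round done in triplicate. Fitness is the logarithm of a genotype's enrichment divided by that of the wild type, from inverse-variance-weighted replicate averages of Illumina-sequenced inputs and outputs. The base of the logarithm is 2, and genotypes needed ≥10 input reads and ≥1 read per output.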

Variant	polymerase ribozyme fitness (log ratio)
GGAUCUUCUCGAUCUAACAAAAAAGACAAAUCUGCCACAAAGCUUGAGAUCAUCUUCGGAUGCAGAGGCGGCAGCCUUCGGUGGCGCGAUGGCGCCAACGUUGUCAACUAUGACACGCAAAACGCGUGCUCCGUUGAAUGGAGUUUAUCAUG [G50U A91G C103G]	≤ -4.2
GGAUCUUCUCGAUCUAACAAAAAAGACAAAUCUGCCACAAAGCUUGAGAUCAUCUUCGGAUGCAGAGGCGGCAGCCUUCGGUUGCGCGAUAGCGCCAACGUUCUCAACUAUGACACGCAAAACGCGUCCUCCGUUGAAUGGAGUUUAUCAUG [G50U G83U G128C]	-3.62
GGAUCUUCUCGAUCUAACAAAAAAGACAAAUCUGCCACAAAGCUUGAGAUCAUCUUCGGAUGCGGAGGCGGCAGCCUUCGGUGGCGCGAUAGCGCCAACGUUCUCAACUAUGACACGCAAAACGCGUGCUCCGUUGAAUGGAGUUUAUCAUG [G50U A64G]	≤ -4.2
GGAUCUUCUCGAUCUAACAAAAAAGACAAAUCUGCCACAAAGCUUGAGAUCAUCUUCUGAUGCAGAGGCGGCAGCCUUCGGUGGCGCGAUAGCGCCAACGUUCUCAACUAUGACACGCAAAACGCGUGCUCCGUUGAAUGGAGUUUAUCAUG [G50U G58U]	0.771
GGAUCUUCUCGAUCUAACAAAAAAGACAAAUCUGCCACAAAGCUUGAGAUCAUCUUCGGAUGCAGAGGCGGCAGCCUUCGGUGGCGCGAUAGCGCCGACGUUCUCAACUAUGACACGCAAAACGCGUGCUCCGUUGAAUGGAGUUUAUCAUG [G50U A97G]	-0.0233
GGAUCUUCUCGAUCUAACAAAAAAGACAAAUCUGCCACAAAGCUUGAGAUCAUCUUCGGAUGCAGAGGCGGCAGCCUUCGGUGCGGCGAUAGCGCCAACGUUCUCGACUAUGACAUGCAAAACGCGUGCUCCGUUGAAUGGAGUUUAUCAUA [G50U G84C C85G A106G C116U G152A]	≤ -4.2
GGAUCUUCUCGAUCUAACAAAAAAGACAAAUCUGCCACAAAGCUUGAGAUCAUCUUCAGAUGCAGAGGCGGCAGCCUUCGGUGUCGCGAUAGCGCCAACGUUCUUAACUAUGACACGCAAAACGCGUGCUCCAUUGAAUGCAGUUUAUCAUG [G50U G58A G84U C105U G133A G141C]	≤ -4.2
GGAUCUUCUCGAUCUAACAAAAAAGACAAAUCUGCCACAAAGCUUGAGAUCAUCUUCGGAUGCAGAGGCGGCAGCCUUCGAUGGCGCGAUAGGGCCAACGUUCUCAACUAUGACACGCAAAACGCGUGCUCCGUUGAAUGGAGUUUAUCAUG [G50U G81A C93G]	-3.96
GGAUCUUCUCGAUCUAACAAAAAAGACAAAUCUGCCACAAAGCUUGAGAUCAUUUUCGGAUGCAGAGGCGGCAGCCUUCGCUGGAGCGAUAGCGCCAACGUUCUCAACUAUGACACACAAAACGCGUGCUCCGUUGAAUGGAGUUUAUCAUG [G50U C54U G81C C85A G117A]	-0.79
GGAUCUUCUCGAUCUAACAAAAAAGACAAAUCUGCCACAAAGCUUGAGAUCAUCUUCGGAUGCAGAGGCGGCAGCCUUCGGUGGCGCGAUAGCGCCAACGUUCUCAACUAUGACACGCAAAACGCGUGCUCCGUUGAAUGGAGAUUAUCAUG [G50U U144A]	-0.478
GGAUCUUCUCGAUCUAACAAAAAAGACAAAUCUGCCACAAAGCUUGAGACCAUCUGCGGAUGCGGAGGCGGCAGCCUUCGGUAGCGCGAUAGCGCCAACGUUCUGAACGAUGACACGCAAAACGCGUGCUCCGUUGAAUGGAGUUUAUCAUG [G50C U56G A64G G83A C105G U109G]	≤ -4.2
GGAUCUUCUCGAUCUAACAAAAAAGACAAAUCUGCCACAAAGCUUGAGAUCAUCUUCGGAUGCAGAGGCGGCAGCCUUCGGUGGCGCGAUAGCGCCAACGUUCUCAACUAUGACACGCAAAGCGCGUGCUCCGUAGAAUGGAGUUUAUCAUG [G50U A122G U135A]	-0.743
GGAUCUUCUCGAUCUAACAAAAAAGACAAAUCUGCCACAAAGCUUGAGAUCAUCUUCGGAUGCAGAGGCGGCAGCCUUCGGUGGAGCGAUAGCGCCUACGUUCUCAACUAUGACACGCAAAACGCGUGCUCCGUUGAAUAGAGUUUAUCAUG [G50U C85A A97U G140A]	≤ -4.2
GGAUCUUCUCGAUCUAACAAAAAAGACAAAUCUGCCACAAAGCUUGAGAUCAUCUUCGGAUGCAGAGGCGGCAGCCUUCGGUGGCGCGAUAGCUCCAACGUUUUCAACUAUGACACGCAAAACGCGUGCUCCGUUGAAUGGAGUUUAUCAUG [G50U G94U C103U]	-2.08
GGAUCUUCUCGAUCUAACAAAAAAGACAAAUCUGCCACAAAGCUUGAGAUCAUCUUCGGAUGCAGAGGCGGCAGCCUUCGGUGGCGCGAUAGCGCCAACGUUCUCAUCUAUGACACGCAAAACGCGUGCUCCGUUGAAUGGAGUUUAUCAUG [G50U A107U]	-3.73
GGAUCUUCUCGAUCUAACAAAAAAGACAAAUCUGCCACAAAGCUUGAGAUCAUCUUCAGAUGCAGUGGCGGCAGCCUUUGGUGGCGUCAUAGCGCCAACGUUCUCAACUAUGACACGCAACACGCGUGCUCCGUUGAAUGGAGUUUAUCAUG [G50U G58A A66U C79U C87U G88C A121C]	≤ -4.2
GGAUCUUCUCGAUCUAACAAAAAAGACAAAUCUGCCACAAAGCUUGAGAUCAUCUUCGGAUGCAGAGGCGGCAGCCUUCGGUGGCGCGAUAGCGCCAACGUUCUCAACUAUGACACGCAAAACGCGUGCUCCGUUGAAUUGAGUUUAUCAUG [G50U G140U]	-3.88
GGAUCUUCUCGAUCUAACAAAAAAGACAAAUCUGCCACAAAGCUUGAGAUCAUCUUCGGAUGCAGAGGCGGCAGCCUUCAGUGGCGCGAUGGCGCCAAGGUUCUCAACUAUGACACGCAAAACGCGUGCUCCGUUGAAUGGAGUUUAUCAUG [G50U G80A A91G C99G]	≤ -4.2
GGAUCUUCUCGAUCUAACAAAAAAGACAAAUCUGCCACAAAGCUUGAGAUCAUCUUCGGAUGCAGAGGCGGCAGCCUUCGGUGGCGCGAUAGCGCCAACGUUCUCAACUAUGACACGCAAAACGCGUGCACCGUUGAAUGGAGUUUAUCAUG [G50U U130A]	-2.51

Variant	polymerase ribozyme fitness (log ratio)
GGAUCUUCUCGAUCUAACAAAAAAGACAAAUCUGCCACAAAGCUUGAGAUCAUCUUUGGAUGCAGAGGCGGCAGCCUUCGGUGGCGCGAUAGCGCCAACGUUCUCAACUGUGACACGCAAAACGCGUGCUCCGUUGAAUAGAGUUUAUCAUG [G50U C57U A110G G140A]	≤ -4.2
GGAUCUUCUCGAUCUAACAAAAAAGACAAAUCUGCCACAAAGCUUGAGACCAUCUACGGAUCCAGAGGCGGUAGCCUUCGGUGGCGCGAUAGCGUCAACGUUCUCAACUAUGACACGCAAAACGCGUGCUCCGUUGAAUGGAGUUUAUCAUG [G50C U56A G62C C72U C95U]	≤ -4.2
GGAUCUUCUCGAUCUAACAAAAAAGACAAAUCUGCCACAAAGCUUGAGACCACCUUCGGAUGCAGAGGCGGCAGCCUUCGGUAGCGCGAUAGCGGCAACGUUCUCAACUAUGACACGCAAAACGCGUGCUCCGUUGAAUGGAGUUUAUCAUG [G50C U53C G83A C95G]	≤ -4.2
GGAUCUUCUCGAUCUAACAAAAAAGACAAAUCUGCCACAAAGCUUGAGAUCCUCUUAUGAUGCAGAGGCGGCAGCCUUCGGUGGCGCGAUAGCGCCAACGUUCUCAGCUAUGACACGCAAAACGCGUGCUCCGUUGAAUGGAGUUUAUCAUG [G50U A52C C57A G58U A107G]	≤ -4.2
GGAUCUUCUCGAUCUAACAAAAAAGACAAAUCUGCCACAAAGCUUGAGAUCAUCUUCGGAUGCAGAGGCGGCAGCCUCCGGUGGCGCGAUAGCGCCAACGUUCUCAACUAUGACACGCAAAACGCGUGCUCCGUUGAAUGGAGUUUAUCAUG [G50U U78C]	-2.27
GGAUCUUCUCGAUCUAACAAAAAAGACAAAUCUGCCACAAAGCUUGAGAUCAUCUUCGGAUGCAGAGGCGGCAGCCUUCGGUGGCGCGAUAGCGCCAACGUUCUCAACUAUGACACGCAAAACGCGUGCUCCGUUUAAUGGAGUUUAUGAUG [G50U G136U C149G]	-4.16
GGAUCUUCUCGAUCUAACAAAAAAGACAAAUCUGCCACAAAGCUUGAGAUCAUCUUCGGAUGCAGAGGCGGCAGCCUUCGGUGGCGCGAUACCGCCAACGUUCUCAACUAUGACACGCAAAACGCGUGCUCCGUUGAAUGGAGUUUAUCAUG [G50U G92C]	-0.0562
GGAUCUUCUCGAUCUAACAAAAAAGACAAAUCUGCCACAAAGCUUGAGAUCAUCUUCGGAUUCAGAGGCGGCAGCCUUCGGUGGCGCGAUAGCGCCAACGCUCUCAACUAUGACACGCAAAACGCGUGCUCCGUUGAAUGGAGUUUAUCAUG [G50U G62U U101C]	-1
GGAUCUUCUCGAUCUAACAAAAAAGACAAAUCUGCCACAAAGCUUGAGAUCAUCUUCGGAUGCAGAGGCGGCAGCCUUCGGUAGCGCGAUAGCGCCAACGUUCUCAACUAUGACACGCAAAACGCGUGCUCCGUUGAAUGGAGUUCCUCAUG [G50U G83A U146C A147C]	-2.91
GGAUCUUCUCGAUCUAACAAAAAAGACAAAUCUGCCACAAAGCUUGAGAGAAUCUUCGGAUGCAGAGGCGGCAGCCUUCGGUGGCGCGAUAGCGCCAACGUUCUCAACUAUGACACGCAAAACGCGUGCUCCGUUGAAUGGAGUUUAUCAUG [C51A]	-0.687
GGAUCUUCUCGAUCUAACAAAAAAGACAAAUCUGCCACAAAGCUUGAGAUCAUCUUCGGAUGCAGAGGCGGCAGCCUUCGGUGGGGCGAUAGCGCCAACGUUCUCAACUAUGACACGCAAAACGCGUGCUCCGUUGAAUGGAGUUUAUCAUG [G50U C85G]	-3.51
GGAUCUUCUCGAUCUAACAAAAAAGACAAAUCUGCCACAAAGCUUGAGAUCAUCUUCGGAUGCAGAGGCGGCAGCCUUCGGUGGCGUGAUAGCGCCAACGUUCUCAACUAUGACUCGCAAAACGCGUGCUCCGUUGAAUGGAGAUUAUCAUG [G50U C87U A115U U144A]	-3.8
GGAUCUUCUCGAUCUAACAAAAAAGACAAAUCUGCCACAAAGCUUGAGAUCGUCUUCGGAUGCAGAGGCGGCAGCCUUCGGUGGCGCGAUAGCGCCAAGGUUCUCAACUAUGACACGCAAAACGCGUGCUCCGUUGAAUGGAGUUUAUCAUG [G50U A52G C99G]	-2.55
GGAUCUUCUCGAUCUAACAAAAAAGACAAAUCUGCCACAAAGCUUGAGAUCAUCUUCGGAUGCAGAGGCGGCAGCCUUCGGUGGCGCGAUAGCGUCAACGUUCUCAACUAUGACACGCAAAACGCGUGCUCCGUUGAAUGGAGUUUAUCAUG [G50U C95U]	-0.241
GGAUCUUCUCGAUCUAACAAAAAAGACAAAUCUGCCACAAAGCUUGAGAUCAUCUUCGGAUGCAGAGGCGGCAGCAUUCGGUGGCGCGAUAGCGCCAACGUUCUCAACUAUGACACGCAAAACGCUUGCUCCGUUGAAUGGAGUUUAGCAUG [G50U C76A G126U U148G]	≤ -4.2
GGAUCUUCUCGAUCUAACAAAAAAGACAAAUCUGCCACAAAGCUUGAGAUCAUCUUCGGAUGCAGAGGCGGCAACCUUCGGUGGCGCGAUAGUGCCAACGUUCUCCACUAUGACACGCAAAACGCGUGCUCCGUUGAAUGGAGUUUACCAUG [G50U G74A C93U A106C U148C]	≤ -4.2
GGAUCUUCUCGAUCUAACAAAAAAGACAAAUCUGCCACAAAGCUUGAGACCAUCUAGGGAUGCAGGGGCGGCAGCCUUCGGUGGCGCGAUAGCGACAAUGUUCUCAACUAUGGCACGCAAAACGCGUGCUCCGUUGAAUAGAGUUUAUCAUG [G50C U56A C57G A66G C95A C99U A113G G140A]	-4.04
GGAUCUUCUCGAUCUAACAAAAAAGACAAAUCUGCCACAAAGCUUGAGAUCAUCUUCGGAUGCAGAGGCGGCAGCCUUCGGUGGCGCGAUAGCGCCAACGUUCUCAACUAUGACACGCAAAACGCGUGCUCUGUUGAAUGGAGUUUAUCAUG [G50U C132U]	-0.763
GGAUCUUCUCGAUCUAACAAAAAAGACAAAUCUGCCACAAAGCUUGAGAUCAUCUUUGGAUGCAGAGGCGGCAGCCUUCGGUGGCGCGAUAGCGCCAACGUUCUCAACUAUGACACGCAAAACGCGUGCUCCGUUGAAUGGAGUUUAUCAUG [G50U C57U]	1
